The values below come from PMC10681803, “Dynamic ParB–DNA interactions initiate and maintain a partition condensate for bacterial chromosome segregation” (Nucleic Acids Research, 2023).

Data set [1] deals with the molecule itself. Kind of data set: single-molecule fluorescence DNA-stretching assay (HiLo/TIRF microscopy); 42 kb DNA with a single parS tethered at both ends, SxG stain; 0.3 nM ParB^TMR in imaging buffer (40 mM Tris-HCl, 65 mM KCl, 2.5 mM MgCl2, 1 mM CTP); both ParB dimers loaded on the DNA.
Data set [2] concerns the molecule itself. Kind of data set: cross-linking; BMOE (1 mM) cysteine cross-linking of ParB^S278C at 10 uM in storage buffer (50 mM Tris-HCl pH 7.5, 300 mM NaCl) without DNA, quenched with DTT, 12% SDS-PAGE.
Data set [3] concerns the molecule itself. Kind of data set: cross-linking; BMOE cysteine cross-linking of ParB^T22C [2 uM] with ~200 bp DNA with parS [2 uM] and 1 mM CTP, room temperature, quenched with DTT, 12% SDS-PAGE.

B1: TMR-labelled Bacillus subtilis ParB L5C (natural protein, UniProt P26497 1-282, looked up)
chain: MAKGCGKGINALFNQVDLSEETVEEIKIADLRPNPYQPRKHFDDEALAELKESVLQHGILQPLIVRKSLKGYDIVAGERRFRAAKLAGLDTVPAIVRELSEALMREIALLENLQREDLSPLEEAQAYDSLLKHLDLTQEQLAKRLGKSRPHIANHLRLLTLPENIQQLIAEGTLSMGHGRTLLGLKNKNKLEPLVQKVIAEQLNVRQLEQLIQQLNQNVPRETKKKEPVKDAVLKERESYLQNYFGTTVNIKRQKKKGKIEIEFFSNEDLDRILELLSERES
modifications: TMR-maleimide label on the ParB^L5C variant (labelling efficiency 70% of monomers)
notes: ParB (Spo0J) of Bacillus subtilis with L5C, expressed untagged; Untagged; also called ParB^TMR; source: E. coli BL21-Gold (DE3), purified (ammonium sulfate, Heparin, HiTrap SP, Superdex 200), labelled with TMR-maleimide
Consider B1, for which the binding result in data set [1] is listed as “binds”.

B2: Bacillus subtilis ParB S278C (natural protein, UniProt P26497 1-282, looked up)
chain: MAKGLGKGINALFNQVDLSEETVEEIKIADLRPNPYQPRKHFDDEALAELKESVLQHGILQPLIVRKSLKGYDIVAGERRFRAAKLAGLDTVPAIVRELSEALMREIALLENLQREDLSPLEEAQAYDSLLKHLDLTQEQLAKRLGKSRPHIANHLRLLTLPENIQQLIAEGTLSMGHGRTLLGLKNKNKLEPLVQKVIAEQLNVRQLEQLIQQLNQNVPRETKKKEPVKDAVLKERESYLQNYFGTTVNIKRQKKKGKIEIEFFSNEDLDRILELLCERES
notes: ParB (Spo0J) of Bacillus subtilis with S278C, expressed untagged; Untagged; C278 of the two chains is cross-linked by BMOE at the C-terminus; source: E. coli BL21-Gold (DE3), purified
Take B2: the binding result in data set [2] is listed as “binds”.

B3: Bacillus subtilis ParB T22C (natural protein, UniProt P26497 1-282, looked up)
chain: MAKGLGKGINALFNQVDLSEECVEEIKIADLRPNPYQPRKHFDDEALAELKESVLQHGILQPLIVRKSLKGYDIVAGERRFRAAKLAGLDTVPAIVRELSEALMREIALLENLQREDLSPLEEAQAYDSLLKHLDLTQEQLAKRLGKSRPHIANHLRLLTLPENIQQLIAEGTLSMGHGRTLLGLKNKNKLEPLVQKVIAEQLNVRQLEQLIQQLNQNVPRETKKKEPVKDAVLKERESYLQNYFGTTVNIKRQKKKGKIEIEFFSNEDLDRILELLSERES
notes: ParB (Spo0J) of Bacillus subtilis with T22C, expressed untagged; Untagged; C22 of the two chains is cross-linked by BMOE in the N-terminally closed clamp; source: E. coli BL21-Gold (DE3), purified
With B3, in data set [3], the binding result is “binds”.
